# Starred links: 1 amine or outer side, 2 acyl side, 3 side chain; linkers in the order of their positions; H or OH if unused. Non-standard residues stand in square brackets, D forms with d. Groups on a side chain read outwards from the residue. No end group written: not given here. *: point of attachment. PEG12 = NCCOCCOCCOCCOCCOCCOCCOCCOCCOCCOCCOCCOCCC(=O)O; C20 diacid = O=C(O)CCCCCCCCCCCCCCCCCCC(=O)*; C18 diacid = O=C(O)CCCCCCCCCCCCCCCCC(=O)*; PEG8 = NCCOCCOCCOCCOCCOCCOCCOCCOCCC(=O)O; Dip = N[C@H](C(=O)O)C(c1ccccc1)c1ccccc1; γGlu = O=C(O)[C@H](CCC(=O)[*:2])N[*:1]; Stearoyl = CCCCCCCCCCCCCCCCCC(=O)*; αMeF = C[C@](N)(Cc1ccccc1)C(=O)O; (PEG)2 = polyethylene glycol 2; PEG4 = NCCOCCOCCOCCOCCC(=O)O; AEEA = NCCOCCOCC(=O)O; Aib = CC(C)(N)C(=O)O
# B1: Peptide 6 (peptide)
# peptide: H[Aib]HGS[αMeF]TSDVSK[αMeF]LDSK([AEEA-AEEA-γGlu-C18 diacid])AAQD[αMeF]VEWIAN-NH2
# modifications: N-terminus assumed
# SMILES: CC[C@H](C)[C@H](NC(=O)[C@H](Cc1c[nH]c2ccccc12)NC(=O)[C@H](CCC(=O)O)NC(=O)[C@@H](NC(=O)[C@](C)(Cc1ccccc1)NC(=O)[C@H](CC(=O)O)NC(=O)[C@H](CCC(N)=O)NC(=O)[C@H](C)NC(=O)[C@H](C)NC(=O)[C@H](CCCCNC(=O)COCCOCCNC(=O)COCCOCCNC(=O)CC[C@H](NC(=O)CCCCCCCCCCCCCCCCC(=O)O)C(=O)O)NC(=O)[C@H](CO)NC(=O)[C@H](CC(=O)O)NC(=O)[C@H](CC(C)C)NC(=O)[C@](C)(Cc1ccccc1)NC(=O)[C@H](CCCCN)NC(=O)[C@H](CO)NC(=O)[C@@H](NC(=O)[C@H](CC(=O)O)NC(=O)[C@H](CO)NC(=O)[C@@H](NC(=O)[C@](C)(Cc1ccccc1)NC(=O)[C@H](CO)NC(=O)CNC(=O)[C@H](Cc1c[nH]cn1)NC(=O)C(C)(C)NC(=O)[C@@H](N)Cc1c[nH]cn1)[C@@H](C)O)C(C)C)C(C)C)C(=O)N[C@@H](C)C(=O)N[C@@H](CC(N)=O)C(N)=O
# B2: Peptide 58 (peptide)
# peptide: HSQGS[αMeF]TSDVSK[Dip]LDSK([PEG12-γGlu-γGlu-Stearoyl])AAQD[αMeF]VE[Aib]IINT-NH2
# modifications: N-terminus assumed
# SMILES: CCCCCCCCCCCCCCCCCC(=O)N[C@@H](CCC(=O)N[C@@H](CCC(=O)NCCOCCOCCOCCOCCOCCOCCOCCOCCOCCOCCOCCOCCC(=O)NCCCC[C@H](NC(=O)[C@H](CO)NC(=O)[C@H](CC(=O)O)NC(=O)[C@H](CC(C)C)NC(=O)[C@@H](NC(=O)[C@H](CCCCN)NC(=O)[C@H](CO)NC(=O)[C@@H](NC(=O)[C@H](CC(=O)O)NC(=O)[C@H](CO)NC(=O)[C@@H](NC(=O)[C@](C)(Cc1ccccc1)NC(=O)[C@H](CO)NC(=O)CNC(=O)[C@H](CCC(N)=O)NC(=O)[C@H](CO)NC(=O)[C@@H](N)Cc1c[nH]cn1)[C@@H](C)O)C(C)C)C(c1ccccc1)c1ccccc1)C(=O)N[C@@H](C)C(=O)N[C@@H](C)C(=O)N[C@@H](CCC(N)=O)C(=O)N[C@@H](CC(=O)O)C(=O)N[C@@](C)(Cc1ccccc1)C(=O)N[C@H](C(=O)N[C@@H](CCC(=O)O)C(=O)NC(C)(C)C(=O)N[C@H](C(=O)N[C@H](C(=O)N[C@@H](CC(N)=O)C(=O)N[C@H](C(N)=O)[C@@H](C)O)[C@@H](C)CC)[C@@H](C)CC)C(C)C)C(=O)O)C(=O)O
# B3: Peptide 57 (peptide)
# peptide: HSQGS[αMeF]TSDVSK[Dip]LDSK([PEG8-γGlu-γGlu-Stearoyl])AAQD[αMeF]VE[Aib]IINT-NH2
# modifications: N-terminus assumed
# SMILES: CCCCCCCCCCCCCCCCCC(=O)N[C@@H](CCC(=O)N[C@@H](CCC(=O)NCCOCCOCCOCCOCCOCCOCCOCCOCCC(=O)NCCCC[C@H](NC(=O)[C@H](CO)NC(=O)[C@H](CC(=O)O)NC(=O)[C@H](CC(C)C)NC(=O)[C@@H](NC(=O)[C@H](CCCCN)NC(=O)[C@H](CO)NC(=O)[C@@H](NC(=O)[C@H](CC(=O)O)NC(=O)[C@H](CO)NC(=O)[C@@H](NC(=O)[C@](C)(Cc1ccccc1)NC(=O)[C@H](CO)NC(=O)CNC(=O)[C@H](CCC(N)=O)NC(=O)[C@H](CO)NC(=O)[C@@H](N)Cc1c[nH]cn1)[C@@H](C)O)C(C)C)C(c1ccccc1)c1ccccc1)C(=O)N[C@@H](C)C(=O)N[C@@H](C)C(=O)N[C@@H](CCC(N)=O)C(=O)N[C@@H](CC(=O)O)C(=O)N[C@@](C)(Cc1ccccc1)C(=O)N[C@H](C(=O)N[C@@H](CCC(=O)O)C(=O)NC(C)(C)C(=O)N[C@H](C(=O)N[C@H](C(=O)N[C@@H](CC(N)=O)C(=O)N[C@H](C(N)=O)[C@@H](C)O)[C@@H](C)CC)[C@@H](C)CC)C(C)C)C(=O)O)C(=O)O
# B4: Peptide 7 (peptide)
# peptide: H[Aib]HGS[αMeF]TSDVSK[αMeF]LDSK([γGlu-C18 diacid])AAQD[αMeF]VEWIANT-NH2
# modifications: N-terminus assumed
# SMILES: CC[C@H](C)[C@H](NC(=O)[C@H](Cc1c[nH]c2ccccc12)NC(=O)[C@H](CCC(=O)O)NC(=O)[C@@H](NC(=O)[C@](C)(Cc1ccccc1)NC(=O)[C@H](CC(=O)O)NC(=O)[C@H](CCC(N)=O)NC(=O)[C@H](C)NC(=O)[C@H](C)NC(=O)[C@H](CCCCNC(=O)CC[C@H](NC(=O)CCCCCCCCCCCCCCCCC(=O)O)C(=O)O)NC(=O)[C@H](CO)NC(=O)[C@H](CC(=O)O)NC(=O)[C@H](CC(C)C)NC(=O)[C@](C)(Cc1ccccc1)NC(=O)[C@H](CCCCN)NC(=O)[C@H](CO)NC(=O)[C@@H](NC(=O)[C@H](CC(=O)O)NC(=O)[C@H](CO)NC(=O)[C@@H](NC(=O)[C@](C)(Cc1ccccc1)NC(=O)[C@H](CO)NC(=O)CNC(=O)[C@H](Cc1c[nH]cn1)NC(=O)C(C)(C)NC(=O)[C@@H](N)Cc1c[nH]cn1)[C@@H](C)O)C(C)C)C(C)C)C(=O)N[C@@H](C)C(=O)N[C@@H](CC(N)=O)C(=O)N[C@H](C(N)=O)[C@@H](C)O
# B5: Peptide 153 (peptide)
# peptide: H[Aib]QGTFTSDVSK[αMeF]LDSK([AEEA-AEEA-γGlu-C20 diacid])RAQDFVRWLL[Aib]E-OH
# modifications: N-terminus assumed
# SMILES: CC(C)C[C@H](NC(=O)[C@H](Cc1c[nH]c2ccccc12)NC(=O)[C@H](CCCNC(=N)N)NC(=O)[C@@H](NC(=O)[C@H](Cc1ccccc1)NC(=O)[C@H](CC(=O)O)NC(=O)[C@H](CCC(N)=O)NC(=O)[C@H](C)NC(=O)[C@H](CCCNC(=N)N)NC(=O)[C@H](CCCCNC(=O)COCCOCCNC(=O)COCCOCCNC(=O)CC[C@H](NC(=O)CCCCCCCCCCCCCCCCCCC(=O)O)C(=O)O)NC(=O)[C@H](CO)NC(=O)[C@H](CC(=O)O)NC(=O)[C@H](CC(C)C)NC(=O)[C@](C)(Cc1ccccc1)NC(=O)[C@H](CCCCN)NC(=O)[C@H](CO)NC(=O)[C@@H](NC(=O)[C@H](CC(=O)O)NC(=O)[C@H](CO)NC(=O)[C@@H](NC(=O)[C@H](Cc1ccccc1)NC(=O)[C@@H](NC(=O)CNC(=O)[C@H](CCC(N)=O)NC(=O)C(C)(C)NC(=O)[C@@H](N)Cc1c[nH]cn1)[C@@H](C)O)[C@@H](C)O)C(C)C)C(C)C)C(=O)N[C@@H](CC(C)C)C(=O)NC(C)(C)C(=O)N[C@@H](CCC(=O)O)C(=O)O
# B6: Peptide 56 (peptide)
# peptide: HSQGS[αMeF]TSDVSK[Dip]LDSK([PEG4-γGlu-γGlu-Stearoyl])AAQD[αMeF]VE[Aib]IINT-NH2
# modifications: N-terminus assumed
# SMILES: CCCCCCCCCCCCCCCCCC(=O)N[C@@H](CCC(=O)N[C@@H](CCC(=O)NCCOCCOCCOCCOCCC(=O)NCCCC[C@H](NC(=O)[C@H](CO)NC(=O)[C@H](CC(=O)O)NC(=O)[C@H](CC(C)C)NC(=O)[C@@H](NC(=O)[C@H](CCCCN)NC(=O)[C@H](CO)NC(=O)[C@@H](NC(=O)[C@H](CC(=O)O)NC(=O)[C@H](CO)NC(=O)[C@@H](NC(=O)[C@](C)(Cc1ccccc1)NC(=O)[C@H](CO)NC(=O)CNC(=O)[C@H](CCC(N)=O)NC(=O)[C@H](CO)NC(=O)[C@@H](N)Cc1c[nH]cn1)[C@@H](C)O)C(C)C)C(c1ccccc1)c1ccccc1)C(=O)N[C@@H](C)C(=O)N[C@@H](C)C(=O)N[C@@H](CCC(N)=O)C(=O)N[C@@H](CC(=O)O)C(=O)N[C@@](C)(Cc1ccccc1)C(=O)N[C@H](C(=O)N[C@@H](CCC(=O)O)C(=O)NC(C)(C)C(=O)N[C@H](C(=O)N[C@H](C(=O)N[C@@H](CC(N)=O)C(=O)N[C@H](C(N)=O)[C@@H](C)O)[C@@H](C)CC)[C@@H](C)CC)C(C)C)C(=O)O)C(=O)O
# B7: Peptide 5 (peptide)
# peptide: H[Aib]QGS[αMeF]TSDVSK[αMeF]LDSK([AEEA-AEEA-γGlu-γGlu-C18 diacid])AAQD[αMeF]VQ[Aib]IAN-NH2
# modifications: N-terminus assumed
# SMILES: CC[C@H](C)[C@H](NC(=O)C(C)(C)NC(=O)[C@H](CCC(N)=O)NC(=O)[C@@H](NC(=O)[C@](C)(Cc1ccccc1)NC(=O)[C@H](CC(=O)O)NC(=O)[C@H](CCC(N)=O)NC(=O)[C@H](C)NC(=O)[C@H](C)NC(=O)[C@H](CCCCNC(=O)COCCOCCNC(=O)COCCOCCNC(=O)CC[C@H](NC(=O)CC[C@H](NC(=O)CCCCCCCCCCCCCCCCC(=O)O)C(=O)O)C(=O)O)NC(=O)[C@H](CO)NC(=O)[C@H](CC(=O)O)NC(=O)[C@H](CC(C)C)NC(=O)[C@](C)(Cc1ccccc1)NC(=O)[C@H](CCCCN)NC(=O)[C@H](CO)NC(=O)[C@@H](NC(=O)[C@H](CC(=O)O)NC(=O)[C@H](CO)NC(=O)[C@@H](NC(=O)[C@](C)(Cc1ccccc1)NC(=O)[C@H](CO)NC(=O)CNC(=O)[C@H](CCC(N)=O)NC(=O)C(C)(C)NC(=O)[C@@H](N)Cc1c[nH]cn1)[C@@H](C)O)C(C)C)C(C)C)C(=O)N[C@@H](C)C(=O)N[C@@H](CC(N)=O)C(N)=O
# Molecular target: human GLP-1 receptor (human, UniProt P43220)
# Assay: cell-based or functional assay
row,"cAMP production, hGLP-1R EC50 (pM)",Binder
1,5.16,HSQGS[αMeF]TSDVSK[Dip]LDSK([γGlu-(PEG)2-γGlu-(PEG)2-Stearoyl])AAQD[αMeF]VE[Aib]IINT-NH2 [Peptide 60]
2,48,H[Aib]QGTFTSDVSK[αMeF]LDSK([AEEA-AEEA-γGlu-C18 diacid])RARDFVRWLL[Aib]TE-OH (also: αMePhe at 23 (V)) [Peptide 166]
3,568,B1
4,6.18,HSQGS[αMeF]TSDVSK[Dip]LDSK([γGlu-γGlu-(PEG)2-(PEG)2-Stearoyl])AAQD[αMeF]VE[Aib]IINT-NH2 [Peptide 59]
5,18.8,HSQGS[αMeF]TSDVSK[Dip]LDSK([(PEG)2-(PEG)2-γGlu-γGlu-Stearoyl])AAQD[αMeF]VQ[Dip]LEA-NH2 [Peptide 55]
6,3.9,B2
7,9.09,B3
8,84.6,B4
9,41.2,B5
10,4.86,B6
11,283,B7

# Molecular target: human glucagon receptor (human, UniProt P47871)
# Assay: cell-based or functional assay
row,"cAMP production, hGluc-R EC50 (pM)",Binder
1,21.1,HSQGS[αMeF]TSDVSK[Dip]LDSK([γGlu-(PEG)2-γGlu-(PEG)2-Stearoyl])AAQD[αMeF]VE[Aib]IINT-NH2 [Peptide 60]
2,270,H[Aib]QGTFTSDVSK[αMeF]LDSK([AEEA-AEEA-γGlu-C18 diacid])RARDFVRWLL[Aib]TE-OH (also: αMePhe at 23 (V)) [Peptide 166]
3,516,B1
4,28.4,HSQGS[αMeF]TSDVSK[Dip]LDSK([γGlu-γGlu-(PEG)2-(PEG)2-Stearoyl])AAQD[αMeF]VE[Aib]IINT-NH2 [Peptide 59]
5,19.1,HSQGS[αMeF]TSDVSK[Dip]LDSK([(PEG)2-(PEG)2-γGlu-γGlu-Stearoyl])AAQD[αMeF]VQ[Dip]LEA-NH2 [Peptide 55]
6,11.3,B2
7,16.9,B3
8,30.7,B4
9,99,B5
10,10.9,B6
11,7140,B7

# Reference: patent US12630600B2 (MEDIMMUNE LIMITED, priority 2022, dated 2026)
